Measurements reported in the supplement of paper PMC12764529.
± gives the half width of the 95% confidence interval.

Tests used:
[1] = folding stability dG unfold from chymotrypsin proteolysis; higher = more stable
Procedure, shortened: (§1)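 K50 was inferred by Bayesian fitting of sequencing counts obtained after protease digestion of designed mini-proteins. Unfolding free energy was derived by comparison with a sequence-predicted unfolded-state K50 and a shared folded-state K50, for each protease or both combined. The mini-proteins were under 80 residues, had no cysteine, were carried in a PA-tagged cDNA display construct, and were kept only if AlphaFold2 dimer inter-PAE exceeded 15.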

[2] = folding stability dG unfold from trypsin proteolysis; higher = more stable
Procedure, shortened: as §1

[3] = folding stability dG unfold (combined trypsin and chymotrypsin); higher = more stable
Procedure, shortened: as §1

SAGGGLSPDTPVNYVVFVELPNGERRTFNVPGPAGRPEVAIAIAEKLREEGYEVKAIFPGEGVIVVGSAGGS [r8_497_TrMRF]
folding stability dG unfold [1]: 3.117 ± 0.0089 kcal/mol | folding stability dG unfold [2]: 2.88 ± 0.12 kcal/mol | folding stability dG unfold [3]: 2.98 ± 0.08 kcal/mol

SAGGGMKISTVETKPESDGSIVITIKVYDANGNEIKTYTIPLKGLSNVTITIPVANNPIEVSIPATLSSAGG [r13_427_JUSTAS]
folding stability dG unfold [1]: 2.05 ± 0.078 kcal/mol | folding stability dG unfold [2]: 1.48 ± 0.037 kcal/mol | folding stability dG unfold [3]: 1.84 ± 0.13 kcal/mol

SAGGGMLLTTTQTITLPNGTLLTVTSTFTLTPPAVPVPVVELDESSIAEYDPATGILTDPSVPTPIPVPSAG [r5_807_JUSTAS]
folding stability dG unfold [1]: 0.596 ± 0.11 kcal/mol | folding stability dG unfold [2]: 0.733 ± 0.066 kcal/mol | folding stability dG unfold [3]: 0.766 ± 0.1 kcal/mol

SAGGGMNISVDPNQSVTIPVTRIENGVPVETTVTISLPAGSTISPEGDNIIINYPHTGQTITLPTTLISAGG [r13_275_JUSTAS]
folding stability dG unfold [1]: -0.174 ± 0.1 kcal/mol | folding stability dG unfold [2]: 1.36 ± 0.043 kcal/mol | folding stability dG unfold [3]: 0.862 ± 0.041 kcal/mol

SAGGGMSTLVRLPPGGVEEREVPPGTEADLNAEFSPESKLVVRTFDPATGRWTETVYEPGGVPTVLSSSAGG [r13_74_JUSTAS]
folding stability dG unfold [1]: 3.65 ± 0.21 kcal/mol | folding stability dG unfold [2]: 2.91 ± 0.082 kcal/mol | folding stability dG unfold [3]: 3.41 ± 0.32 kcal/mol

SAGGGMVITTPQTTSTTFSPPTAPAVPAPFTQSSSFTIGNTKVTVTTTQAAGSGTTTVTLTTILPPLASAGG [r13_998_JUSTAS]
folding stability dG unfold [1]: 1.18 ± 0.089 kcal/mol | folding stability dG unfold [2]: 1 ± 0.034 kcal/mol | folding stability dG unfold [3]: 1.12 ± 0.065 kcal/mol

SAGGGNIRPVRIERLPDGSLLIVLVADSPDDAFSDESTLDALPGEEELLEARYDPSTGRVLLVRRFRPSAGG [r13_413_TrMRF]
folding stability dG unfold [1]: 1.71 ± 0.064 kcal/mol | folding stability dG unfold [2]: 1.33 ± 0.055 kcal/mol | folding stability dG unfold [3]: 1.55 ± 0.071 kcal/mol

SAGGGNKVLLVVEAESPEVLEEKIREAEEAFGFTVTPLRREPLPDDRYRLVLEIDAPPEVVEFFKKESAGGS [r8_357_TrMRF]
folding stability dG unfold [1]: 1.35 ± 0.092 kcal/mol | folding stability dG unfold [2]: 1.15 ± 0.032 kcal/mol | folding stability dG unfold [3]: 1.3 ± 0.045 kcal/mol

SAGGGPLKPILLKVTAKVEKNGKLLEVEAEIAVPLPNKPITLEEIRKILEEALPPDVKIVSLELDPESAGGS [r16_407_TrMRF]
folding stability dG unfold [1]: 2.6 ± 0.075 kcal/mol | folding stability dG unfold [2]: 2.99 ± 0.2 kcal/mol | folding stability dG unfold [3]: 2.67 ± 0.21 kcal/mol

SAGGGPPPVEVTTSTDPSTGKVTTTVTAGPAGTRFTSSSPNGSSTTTTTVTYVGDTWEVSTSSTSSSSAGGS [r16_631_JUSTAS]
folding stability dG unfold [1]: 1.37 ± 0.11 kcal/mol | folding stability dG unfold [2]: 1.21 ± 0.061 kcal/mol | folding stability dG unfold [3]: 1.31 ± 0.1 kcal/mol

SAGGGPVTEETYTIKRPDGTELVVTRYYFPGTGETVVRIYPPSTKTPLSTVPLSEASPELLAEIARRSAGGS [r8_32_JUSTAS]
folding stability dG unfold [1]: 2.108 ± 0.013 kcal/mol | folding stability dG unfold [2]: 1.2 ± 0.027 kcal/mol | folding stability dG unfold [3]: 1.79 ± 0.03 kcal/mol

SAGGGPVTVTVTFKPPSTGLTSTVTLPFPNVSSYEEAKERAEELAKEAGGPIETITFTDPATGKAHPLSAGG [r13_771_JUSTAS]
folding stability dG unfold [1]: 0.213 ± 0.27 kcal/mol | folding stability dG unfold [2]: 0.449 ± 0.068 kcal/mol | folding stability dG unfold [3]: 0.646 ± 0.23 kcal/mol

SAGGGPVVLTDPVKTEKSPDGTTYTLTREVFYDPSRGEPLKVRFTLTKVTNYPDGVKTETLEEKEVALSAGG [r13_596_JUSTAS]
folding stability dG unfold [1]: 1.33 ± 0.19 kcal/mol | folding stability dG unfold [2]: 0.816 ± 0.081 kcal/mol | folding stability dG unfold [3]: 1.09 ± 0.16 kcal/mol

SAGGGQTIEIKFPVPNENYRVYLMVYDPDKPISVEPQRFDPPDGEVTDKIKLPPDVKIGFMAFPPEDMSAGG [r13_977_TrROS]
folding stability dG unfold [1]: 0.966 ± 0.13 kcal/mol | folding stability dG unfold [2]: 0.631 ± 0.033 kcal/mol | folding stability dG unfold [3]: 0.823 ± 0.048 kcal/mol

SAGGGRARLIELKEARFNPETGVLELTALVEFPEIGTLVVFRIRVPLEGEPRIEIEVEVYPIKPGEASAGGS [r16_207_TrMRF]
folding stability dG unfold [1]: 4.31 ± 0.056 kcal/mol | folding stability dG unfold [2]: 3.17 ± 0.07 kcal/mol | folding stability dG unfold [3]: 4 ± 0.091 kcal/mol

SAGGGRVAVLKVEVRNPETGETTEVELVLPLPPEMTPEEAEEAAREAARTLAESTGVEVEIKSVELLSAGGS [r8_312_TrMRF]
folding stability dG unfold [1]: 3.278 ± 0.031 kcal/mol | folding stability dG unfold [2]: 3.77 ± 0.068 kcal/mol | folding stability dG unfold [3]: 3.46 ± 0.053 kcal/mol

SAGGGSFINISKKEIAEAISKLIGKDYPLEDVKVSVTTLPENKTIINVEIKLPNTTETLYIPILFDVSAGGS [r16_42_TrMRF]
folding stability dG unfold [1]: 1.7 ± 0.018 kcal/mol | folding stability dG unfold [2]: 2.09 ± 0.094 kcal/mol | folding stability dG unfold [3]: 1.91 ± 0.068 kcal/mol

SAGGGSLSDIATVDTSSYTDPNNPASVTVTNVTIPDGSTVTVTYNPTTGTVTVTTATDGTTTTTTIPSSAGG [r13_960_JUSTAS]
folding stability dG unfold [1]: 0.917 ± 0.056 kcal/mol | folding stability dG unfold [2]: 1.89 ± 0.19 kcal/mol | folding stability dG unfold [3]: 1.42 ± 0.15 kcal/mol
